B1: 3F2-hIL7-3A (antibody)
heavy: QVQLQESGPGLVKPSETLSLTCTVSGYSITSGYNWHWIRQFPGNGLEWMGYIHHSSITNYNPSLKSRITISRDTSKNQFSLKLSSVTAADTATYYCAREGYDYDWFAYWGQGTLVTVSSASTKGPSVFPLAPSSKSTSGGTAALGCLVKDYFPEPVTVSWNSGALTSGVHTFPAVLQSSGLYSLSSVVTVPSSSLGTQTYICNVNHKPSNTKVDKKVEPKSCDKTHTCPPCPAPELLGGPSVFLFPPKPKDTLMISRTPEVTCVVVDVSHEDPEVKFNWYVDGVEVHNAKTKPREEQYNSTYRVVSVLTVLHQDWLNGKEYKCKVSNKALPAPIEKTISKAKGQPREPQVYTLPPSRDEGGGGSGGGGSDCDIEGKDGKQYESVLMVSIDQLLDSMKEIGSNCLNNEFNFFKRHICDANKEGMFLFRAARKLRQFLKMNSTGDFDLHLLKVSEGTTILLNCTGQVKGRKPAALGEAQPTKSLEENKSLKEQKKLNDLCFLKRLLQEIKTCWNKILMGTKEHGGGGSGGGGSVSLTCLVKGFYPSDIAVEWESNGQPENNYKTTPPVLDSDGSFFLYSKLTVDKSRWQQGNVFSCSVMHEALHNHYTQKSLSLSPGK
light: DIVLTQSPDFQSVTPKEKVTITCRASQSISNNLHWYQQKPDESPKLLIKYASQSISGIPSRFSGSGSGTDFTLTINSVEAEDFAMYFCQQSKSWPFTFGQGTRLEIKRTVAAPSVFIFPPSDEQLKSGTASVVCLLNNFYPREAKVQWKVDNALQSGNSQESVTEQDSKDSTYSLSSTLTLSKADYEKHKVYACEVTHQGLSSPVTKSFNRGEC
notes: IgG1
B2: 3F2-hIL7-3A-mIFNa4 (antibody, IgG1)
heavy: QVQLQESGPGLVKPSETLSLTCTVSGYSITSGYNWHWIRQFPGNGLEWMGYIHHSSITNYNPSLKSRITISRDTSKNQFSLKLSSVTAADTATYYCAREGYDYDWFAYWGQGTLVTVSSASTKGPSVFPLAPSSKSTSGGTAALGCLVKDYFPEPVTVSWNSGALTSGVHTFPAVLQSSGLYSLSSVVTVPSSSLGTQTYICNVNHKPSNTKVDKKVEPKSCDKTHTCPPCPAPELLGGPSVFLFPPKPKDTLMISRTPEVTCVVVDVSHEDPEVKFNWYVDGVEVHNAKTKPREEQYNSTYRVVSVLTVLHQDWLNGKEYKCKVSNKALPAPIEKTISKAKGQPREPQVYTLPPSRDEGGGGSGGGGSDCDIEGKDGKQYESVLMVSIDQLLDSMKEIGSNCLNNEFNFFKRHICDANKEGMFLFRAARKLRQFLKMNSTGDFDLHLLKVSEGTTILLNCTGQVKGRKPAALGEAQPTKSLEENKSLKEQKKLNDLCFLKRLLQEIKTCWNKILMGTKEHGGGGSGGGGSVSLTCLVKGFYPSDIAVEWESNGQPENNYKTTPPVLDSDGSFFLYSKLTVDKSRWQQGNVFSCSVMHEALHNHYTQKSLSLSPGKGGGGSGGGGSGGGGSGGGGSCDLPHTYNLGNKRALTVLEEMRRLPPLSCLKDRKDFGFPLEKVDNQQIQKAQAILVLRDLTQQILNLFTSKDLSATWNATLLDSFCNDLHQQLNDLKACVMQEPPLTQEDSLLAVRTYFHRITVYLRKKKHSLCAWEVIRAEVWRALSSSTNLLARLSEEKE
light: B1 light
notes: IgG1
B3: PD1-KN035-3A-IgG1 (bispecific antibody)
heavy: EVQLVESGGGLVQPGGSLRLSCAASGFTFSSYSMSWVRQAPGKRLEWVAHISSGGSSTYYPDTVKGRFTISRDNSKNTLYLQMNSLRAEDTAMYYCTRQFYYGSSFWYFDVWGAGTTVTVSSASTKGPSVFPLAPSSKSTSGGTAALGCLVKDYFPEPVTVSWNSGALTSGVHTFPAVLQSSGLYSLSSVVTVPSSSLGTQTYICNVNHKPSNTKVDKKVEPKSCDKTHTCPPCPAPELLGGPSVFLFPPKPKDTLMISRTPEVTCVVVDVSHEDPEVKFNWYVDGVEVHNAKTKPREEQYNSTYRVVSVLTVLHQDWLNGKEYKCKVSNKALPAPIEKTISKAKGQPREPQVYTLPPSREEGGGGSGGGGSQVQLVESGGGLVQPGGSLRLSCAASGFTFSRRCMAWFRQAPGKERERVAKLLTTSGSTYLADSVKGRFTISRDNSKNTVYLQMNSLRAEDTAVYYCAADSFEDPTCTLVTSSGAFQYWGQGTLVTVSSGGGGSGGGGSVSLTCLVKGFYPSDIAVEWESNGQPENNYKTTPPVLDSDGSFFLYSKLTVDKSRWQQGNVFSCSVMHEALHNHYTQKSLSLSPGK
light: DNVLTQSPATLSVSPGERATLSCKASQSVDFDGDSYMNWYQQKPGQPPRLLIYAASNLESGIPARFSGSGSGTDFTLTISSVEPEDFATYYCQQSNEDPPTFGGGTKVEIKRTVAAPSVFIFPPSDEQLKSGTASVVCLLNNFYPREAKVQWKVDNALQSGNSQESVTEQDSKDSTYSLSSTLTLSKADYEKHKVYACEVTHQGLSSPVTKSFNRGEC
notes: IgG1
B4: CT4-KN035-3A-knob-IgG1 (bispecific antibody)
heavy 1: EVQLVESGGGLVQPGGSLRLSCAASGFTFSSYTMSWVRQAPGKGLEWVATISRGGGYTSYPDSVKGRFTISRDNSKNTLYLQMNSLRAEDTAVYYCAREDYGSSYVHWFAYWGQGTLVTVSAASTKGPSVFPLAPSSKSTSGGTAALGCLVKDYFPEPVTVSWNSGALTSGVHTFPAVLQSSGLYSLSSVVTVPSSSLGTQTYICNVNHKPSNTKVDKKVEPKSCDKTHTCPPCPAPELLGGPSVFLFPPKPKDTLMISRTPEVTCVVVDVSHEDPEVKFNWYVDGVEVHNAKTKPREEQYNSTYRVVSVLTVLHQDWLNGKEYKCKVSNKALPAPIEKTISKAKGQPREPQVCTLPPSREEGGGGSGGGGSQVQLVESGGGLVQPGGSLRLSCAASGFTFSRRCMAWFRQAPGKERERVAKLLTTSGSTYLADSVKGRFTISRDNSKNTVYLQMNSLRAEDTAVYYCAADSFEDPTCTLVTSSGAFQYWGQGTLVTVSSGGGGSGGGGSVSLWCLVKGFYPSDIAVEWESNGQPENNYKTTPPVLDSDGSFFLYSKLTVDKSRWQQGNVFSCSVMHEALHNHYTQKSLSLSPGK
heavy 2: not shown
light: DIQMTQSPSFLSASVGDRVTITCRAGENIYSYLAWYQQKPGKAPKLLIYNARTLAEGVPSRFSGSGSGTEFTLTISSLQPEDFATYYCQHHYGSPRTFGGGTKLEIKRTVAAPSVFIFPPSDEQLKSGTASVVCLLNNFYPREAKVQWKVDNALQSGNSQESVTEQDSKDSTYSLSSTLTLSKADYEKHKVYACEVTHQGLSSPVTKSFNRGEC
notes: IgG1 with knobs-in-holes; KN035 on the knob chain only
B5: CT4-KN035-3A-hole-IgG1 (bispecific antibody)
heavy 1: B4 heavy 1 with C354Y, E361C, W514S, L516A, Y555V
heavy 2: not shown
light: B4 light
notes: IgG1 with knobs-in-holes; KN035 on the hole chain only; also called CT4-KN035-3A-kole
B6: KN035-IgG1 (D265A) (Fc fusion, not shown: a dimerising Fc or GST)
VHH: QVQLVESGGGLVQPGGSLRLSCAASGFTFSRRCMAWFRQAPGKERERVAKLLTTSGSTYLADSVKGRFTISRDNSKNTVYLQMNSLRAEDTAVYYCAADSFEDPTCTLVTSSGAFQYWGQGTLVTVSS
notes: Control; with D265A mutation in heavy chain constant domain; also called KN035-PDL1
B7: PDL1-CD86-3A-IgG1 (antibody)
heavy: EVQLLESGGGLVQPGGSLRLSCAASGFTFSSYIMMWVRQAPGKGLEWVSSIYPSGGITFYADTVKGRFTISRDNSKNTLYLQMNSLRAEDTAVYYCARIKLGTVTTVDYWGQGTLVTVSSASTKGPSVFPLAPSSKSTSGGTAALGCLVKDYFPEPVTVSWNSGALTSGVHTFPAVLQSSGLYSLSSVVTVPSSSLGTQTYICNVNHKPSNTKVDKKVEPKSCDKTHTCPPCPAPELLGGPSVFLFPPKPKDTLMISRTPEVTCVVVDVSHEDPEVKFNWYVDGVEVHNAKTKPREEQYNSTYRVVSVLTVLHQDWLNGKEYKCKVSNKALPAPIEKTISKAKGQPREPQVYTLPPSRDEGGGGSGGGGSAPLKIQAYFNETADLPCQFANSQNLSLSELVVFWQDQENLVLNEVYLGKERFDSVDSKYMGRTSFDSDSWTLRLHNLQIKDKGRYQCIIHHKKPTGMINIHQMNSELSVLAGGGGSGGGGSVSLTCLVKGFYPSDIAVEWESNGQPENNYKTTPPVLDSDGSFFLYSKLTVDKSRWQQGNVFSCSVMHEALHNHYTQKSLSLSPGK
light: QSALTQPASVSGSPGQSITISCTGTSSDVGGYNYVSWYQQHPGKAPKLMIYDVSNRPSGVSNRFSGSKSGNTASLTISGLQAEDEADYYCSSYTSSSTRVFGTGTKVTVLGQPKANPTVTLFPPSSEELQANKATLVCLISDFYPGAVTVAWKADGSPVKAGVETTKPSKQSNNKYAASSYLSLTPEQWKSHRSYSCQVTHEGSTVEKTVAPTECS
notes: IgG1
B8: PDL1-CD86-3A-IgG4 (antibody)
chain 1: EVQLLESGGGLVQPGGSLRLSCAASGFTFSSYIMMWVRQAPGKGLEWVSSIYPSGGITFYADTVKGRFTISRDNSKNTLYLQMNSLRAEDTAVYYCARIKLGTVTTVDYWGQGTLVTVSSASTKGPSVFPLAPCSRSTSESTAALGCLVKDYFPEPVTVSWNSGALTSGVHTFPAVLQSSGLYSLSSVVTVPSSSLGTKTYTCNVDHKPSNTKVDKRVESKYGPPCPSCPAPEFLGGPSVFLFPPKPKDTLMISRTPEVTCVVVDVSQEDPEVQFNWYVDGVEVHNAKTKPREEQFNSTYRVVSVLTVLHQDWLNGKEYKCKVSNKGLPSSIEKTISKAKGQPREPQVYTLPPSQEEGGGGSGGGGSAPLKIQAYFNETADLPCQFANSQNLSLSELVVFWQDQENLVLNEVYLGKERFDSVDSKYMGRTSFDSDSWTLRLHNLQIKDKGRYQCIIHHKKPTGMINIHQMNSELSVLAGGGGSGGGGSVSLTCLVKGFYPSDIAVEWESNGQPENNYKTTPPVLDSDGSFFLYSRLTVDKSRWQEGNVFSCSVMHEALHNHYTQKSLSLSLGK
chain 2: B7 light
B9: ATOR1015-CD86 (ligand)
chain: APLKIQAYFNETADLPCQFANSQNLSLSELVVFWQDQENLVLNEVYLGKERFDSVDSKYMGRTSFDSDSWTLRLHNLQIKDKGRYQCIIHHKKPTGMINIHQMNSELSVLA
notes: Used as control captured on a protein A chip

Where a chain is given by its changes, count along the chain named. In names and notes the source's numbering stands.

The target of one test is T1, 6×Histidine-tagged human PD-L1 protein (hPDL1-His) (human, UniProt Q9NZQ7 19-238).
T1 construct: also called hPL1-His; His-tagged human PD-L1
T1 sequence (Q9NZQ7 19-238 limits assumed): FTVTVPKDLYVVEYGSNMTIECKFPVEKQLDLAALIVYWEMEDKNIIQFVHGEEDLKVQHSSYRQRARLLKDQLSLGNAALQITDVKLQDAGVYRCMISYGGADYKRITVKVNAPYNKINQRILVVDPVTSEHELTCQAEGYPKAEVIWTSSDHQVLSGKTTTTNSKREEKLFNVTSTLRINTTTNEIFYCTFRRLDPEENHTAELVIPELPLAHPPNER
Nature of the test: SPR Biacore T200; binder captured on protein A chip, target as analyte. On the technique in general: SPR reads the build-up and loss of mass on a sensor chip optically.
Regarding B1, the Kd (as a rule, a measure of binding affinity in units of concentration) came to 0.493 nM; the dissociation rate constant (koff) (as a rule, a measure of how fast the partners let go of each other) was found to be 0.000879 s⁻¹; the on-rate constant (kon) (in general, a measure of how fast the partners come together) amounted to 1.78e+06 M⁻¹ s⁻¹.

Regarding B2, the equilibrium dissociation constant (Kd) was determined as 0.685 nM, the off-rate (koff) was 0.000803 s⁻¹ and the kon was 1.17e+06 M⁻¹ s⁻¹.

The next test has as its target T1, 6×Histidine-tagged human PD-L1 protein …. The test is described as above. This is another data set of the same source. The procedure: (§1) Binding affinities of the fusion proteins against human CTLA4 (hCTLA4-His) or human PD-L1 (hPDL1) were measured by surface plasmon resonance (SPR) using Biacore™ T200 biosensor equipped with pre-immobilized protein A sensor chips. A CTLA4 antibody CT4-4G12-IgG1 (CT4) was used as a control. ATOR1015-CD86 (CD86) and KN035-IgG1 (with D265A mutation in heavy chain constant domain) were also used as controls.
In turn, B3 showed an equilibrium dissociation constant (Kd) of 14.1 nM, an off-rate (koff) of 0.00687 s⁻¹ and a kon of 487000 M⁻¹ s⁻¹.

As to B4, the dissociation constant (Kd) is 11.7 nM, the koff was 0.00231 s⁻¹ and the kon came out at 197000 M⁻¹ s⁻¹.

Take B5: binding was put at a Kd of 20.4 nM, the koff is 0.0019 s⁻¹ and the kon was found to be 92700 M⁻¹ s⁻¹.

B6 displayed a Kd of 11.5 nM, a koff of 0.0204 s⁻¹ and a kon of 1.78e+06 M⁻¹ s⁻¹.

The target in the next test is human CTLA4 (hCTLA4-His) (human, UniProt P16410 36-161, limits assumed). The test is described as above. The procedure: as §1
human CTLA4 (hCTLA4-His), sequence (P16410 36-161 limits assumed): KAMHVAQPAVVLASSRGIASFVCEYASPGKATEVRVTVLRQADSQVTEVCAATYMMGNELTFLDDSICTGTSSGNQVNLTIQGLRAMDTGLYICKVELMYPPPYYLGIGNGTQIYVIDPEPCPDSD
With B7, the affinity, expressed as Kd, was 1.74 nM; the koff was 0.000693 s⁻¹; the kon was 397000 M⁻¹ s⁻¹.

B8 returned a Kd of 1.88 nM, a koff of 0.000684 s⁻¹ and a kon of 364000 M⁻¹ s⁻¹.

In turn, B9 registered a Kd of 1.02 nM, an off-rate (koff) of 0.000297 s⁻¹ and an on-rate constant (kon) of 291000 M⁻¹ s⁻¹.
